Results as given in US20220396788, “RECOMBINANT TRANSPOSON ENDS” (THERMO FISHER SCIENTIFIC BALTICS, UAB, published 2022).
Where a chain is given by its changes, count along the chain named.

B1: Mu-N0 transposon end (control) (dsDNA)
DNA 1: GTTTTCGCATTTATCGTGAAACGCTTTCGCGTTTTTCGTGCGCCGCTTCA
DNA 2: CTAGTGAAGCGGCGCACGAAAAACGCGAAAGCGTTTCACGATAAATGCGAAAAC
B2: ACGC barcode end (dsDNA)
DNA 1: B1 DNA 1 with G45A, T47G, T48C
DNA 2: B1 DNA 2 with A7G, A8C, C10T
B3: CGCA barcode end (dsDNA)
DNA 1: B1 DNA 1 with G45C, C46G, T47C, T48A
DNA 2: B1 DNA 2 with A7T, A8G, G9C, C10G
B4: GCGT barcode end (dsDNA)
DNA 1: B1 DNA 1 with T47G
DNA 2: B1 DNA 2 with A8C
B5: ACAT barcode end (dsDNA)
DNA 1: B1 DNA 1 with G45A, T47A
DNA 2: B1 DNA 2 with A8T, C10T
B6: TACG barcode end (dsDNA)
DNA 1: B1 DNA 1 with G45T, C46A, T47C, T48G
DNA 2: B1 DNA 2 with A7C, A8G, G9T, C10A
B7: GTAC barcode end (dsDNA)
DNA 1: B1 DNA 1 with C46T, T47A, T48C
DNA 2: B1 DNA 2 with A7G, A8T, G9A
B8: AGAG barcode end (dsDNA)
DNA 1: B1 DNA 1 with G45A, C46G, T47A, T48G
DNA 2: B1 DNA 2 with A7C, A8T, G9C, C10T
B9: CATG barcode end (dsDNA)
DNA 1: B1 DNA 1 with G45C, C46A, T48G
DNA 2: B1 DNA 2 with A7C, G9T, C10G
B10: TATA barcode end (dsDNA)
DNA 1: B1 DNA 1 with G45T, C46A, T48A
DNA 2: B1 DNA 2 with A7T, G9T, C10A
B11: CTCT barcode end (dsDNA)
DNA 1: B1 DNA 1 with G45C, C46T, T47C
DNA 2: B1 DNA 2 with A8G, G9A, C10G
B12: TTTC barcode end (dsDNA)
DNA 1: B1 DNA 1 with G45T, C46T, T48C
DNA 2: B1 DNA 2 with A7G, G9A, C10A
B13: GGGA barcode end (dsDNA)
DNA 1: B1 DNA 1 with C46G, T47G, T48A
DNA 2: B1 DNA 2 with A7T, A8C, G9C
B14: Tn-SEQ1 (dsDNA)
DNA 1: GTTTTAGATGTGTATAAGAGACAGTTTCGCGTTTTTCGTGCGCCGCTTCA
DNA 2: CTAGTGAAGCGGCGCACGAAAAACGCGAAACTGTCTCTTATACACATCTAAAAC
B15: Tn-SEQ2.1 (dsDNA)
DNA 1: GTTTTCGCTCTTCCGATCTAACGCTTTCGCGTTTTTCGTGCGCCGCTTCA
DNA 2: CTAGTGAAGCGGCGCACGAAAAACGCGAAAGCGTTAGATCGGAAGAGCGAAAAC
B16: Tn-SEQ2.2 (dsDNA)
DNA 1: GTTTTCGCATTTATCGTGAAACGCTTTCGCGTTTTTGCTCTTCCGATCTA
DNA 2: CTAGTAGATCGGAAGAGCAAAAACGCGAAAGCGTTTCACGATAAATGCGAAAAC

What was measured:
MuA transposase [1] = biological target: T1, MuA transposase (UniProt P07636 P07636:1-663); assay: EMSA; transposome assembly pH 6.0, 10% DMSO, 30 C 1 h; also fragments lambda DNA (FIG. 5A); conditions: chain copies: 4 (inferred); 5' overhang on non-transferred strand
Protocol: (§1) Analysis was carried out on 2% agarose gel containing 0.5 μg/mL Ethidium bromide and 87 μg/mL BSA and heparin. 5 μL of each loaded sample contains 2 μL of each transposome complex, 1 μL 6× TriTrack DNA Loading Dye (Thermo Scientific, Cat. No. R1161) and 2 μL of water. GeneRuler Low Range DNA Ladder (Thermo Scientific, Cat. No. SM1193) was used.
MuA transposomes were formed in 30 mM Tris-HCl, pH 6.0, 10% (v/v) glycerol, 0.005% (w/v) Triton X-100, 30 mM NaCl, 0.02 mM EDTA, and 10% DMSO. The complex assembly reaction contained equimolar ratio of transposon end (11.2 μM) and MuA transposase (1.65 mg/mL). Components were well mixed and incubated for one hour at 30° C. After incubation, the complex assembly mix was diluted with dilution buffer (88.0% glycerol, 314.5 mM NaCl, and 2.83 mM EDTA) to the final MuA concentration of 0.919 mg/mL. Complexed MuA transposome was stored at −70° C. for at least 16 hours before use.
Complex assembly efficiency was evaluated using an electrophoretic mobility shift assay (EMSA) on a 2% agarose gel containing 0.5 μg/mL ethidium bromide and 87 μg/mL BSA and heparin. Activity was evaluated by fragmenting 100 ng Escherichia virus lambda genomic DNA with 1.5 μL MuA complex in 30 μL of 1× Fragmentation Reaction Buffer (Thermo Scientific™ MuSeek™ Library Preparation Kit, Illumina™ compatible, Cat. No. K1361). […]

MuA transposase [2] = biological target: T1, MuA transposase; assay: EMSA; stable transposome; DMSO, 30 C 1 h; active (FIG. 9); conditions: chain copies: 4 (inferred); 5' overhang
Protocol: as §1, with “FIG. 8 provides EMSA analysis of MuA transposomes that all contain individual unique sequences. Analysis” for “Analysis”, “R1161),” for “R1161)”, “SM1193) marker” for “SM1193)”
(§2) MuA transposomes were formed in 1× Complex Assembly Buffer with DMSO. The complex assembly reaction contained equimolar ratio of transposon end (9.3 μM) and MuA transposase (1.65 mg/mL). Components were well-mixed and placed for incubated for one hour at 30° C. After incubation, the complex assembly mix was diluted with dilution buffer (88.0% glycerol, 314.5 mM NaCl, and 2.83 mM EDTA) to the final MuA concentration of 0.919 mg/mL. Complexed MuA transposome was stored at −70° C. for at least 16 hours before use.

MuA transposase [3] = biological target: T1, MuA transposase; assay: EMSA; 13 substitutions (3 sensitive); active (FIG. 13A); conditions: chain copies: 4 (inferred); 5' overhang
Protocol: as §2, with “Complex” for “The complex”, “and” for “and placed for”
(§3) Complex assembly efficiency was evaluated using an electrophoretic mobility shift assay (EMSA) on a 2% agarose gel containing 0.5 μg/mL Ethidium bromide and 87 μg/mL BSA and heparin. Activity was evaluated by fragmenting 100 ng Escherichia virus lambda genomic DNA with 1.5 μL MuA complex in 1× Fragmentation Reaction Buffer (Thermo Scientific™ MuSeek™ Library Preparation Kit, Illumina™ compatible, Cat. No. K1361). Fragmentation was carried out for 5 minutes at 30° C., then stopped by adding 4.4% SDS solution.

MuA transposase [4] = biological target: T1, MuA transposase; assay: EMSA; 8 substitutions (1 sensitive); active (FIG. 13B); conditions: chain copies: 4 (inferred); 5' overhang
Protocol: as §2, with “Complex” for “The complex”, “and” for “and placed for”
as §3

MuA transposase [5] = biological target: T1, MuA transposase; assay: EMSA; 8 substitutions (1 sensitive); active (FIG. 13C); conditions: chain copies: 4 (inferred); 5' overhang
Protocol: as §2, with “Complex” for “The complex”, “and” for “and placed for”
as §3

T1 sequence (P07636 whole entry, the tested form may be a part, one chain of several): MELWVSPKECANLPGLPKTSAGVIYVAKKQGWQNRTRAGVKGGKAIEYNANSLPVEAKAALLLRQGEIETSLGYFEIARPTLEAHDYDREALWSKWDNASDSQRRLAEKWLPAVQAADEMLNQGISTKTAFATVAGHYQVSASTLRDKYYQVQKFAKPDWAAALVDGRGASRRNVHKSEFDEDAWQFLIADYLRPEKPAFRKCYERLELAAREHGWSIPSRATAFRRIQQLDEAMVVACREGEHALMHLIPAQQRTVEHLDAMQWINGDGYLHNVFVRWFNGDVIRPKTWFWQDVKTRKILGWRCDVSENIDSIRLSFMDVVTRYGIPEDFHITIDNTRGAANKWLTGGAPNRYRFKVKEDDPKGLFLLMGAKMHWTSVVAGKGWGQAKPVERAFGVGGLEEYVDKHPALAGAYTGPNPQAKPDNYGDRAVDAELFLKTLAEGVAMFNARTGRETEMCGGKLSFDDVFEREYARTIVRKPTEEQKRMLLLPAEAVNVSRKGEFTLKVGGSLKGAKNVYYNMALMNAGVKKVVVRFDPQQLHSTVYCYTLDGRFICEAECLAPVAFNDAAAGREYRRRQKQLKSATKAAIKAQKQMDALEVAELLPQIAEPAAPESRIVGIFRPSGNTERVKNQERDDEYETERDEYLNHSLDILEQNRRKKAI

Binder	binding result (MuA transposase [2])	further results
B1	–	binding result (MuA transposase [1]): binds
B2	binds	–
B3	binds	–
B4	binds	–
B5	binds	–
B6	binds	–
B7	binds	–
B8	binds	–
B9	binds	–
B10	binds	–
B11	binds	–
B12	binds	–
B13	binds	–
B14	–	binding result (MuA transposase [3]): binds
B15	–	binding result (MuA transposase [4]): binds
B16	–	binding result (MuA transposase [5]): binds
